The values that follow come from patent US20210147526A1 (PLIANT THERAPEUTICS, published 2021).

Experiment [1] addresses cell surface integrin α7β1 (cells and species not stated). Kind of experiment: cell-based or functional assay.
The target of experiment [2] is T1, Human Integrin α7β1 (human, UniProt Q13683 34-1038; P05556 21-728, limits assumed).
T1 construct: also called human α7β1 integrin
Kind of experiment: comparison of the KD values of Table 8.

For experiment [3], the target named is T2, Mouse Integrin α7β1 (mouse, UniProt Q61738 34-1032; P09055 21-728, limits assumed).
T2 construct: also called murine α7β1 integrin
T2 sequence (Q61738 other isoform, or with tags, fused parts or gaps limits assumed, chain 1 of 2): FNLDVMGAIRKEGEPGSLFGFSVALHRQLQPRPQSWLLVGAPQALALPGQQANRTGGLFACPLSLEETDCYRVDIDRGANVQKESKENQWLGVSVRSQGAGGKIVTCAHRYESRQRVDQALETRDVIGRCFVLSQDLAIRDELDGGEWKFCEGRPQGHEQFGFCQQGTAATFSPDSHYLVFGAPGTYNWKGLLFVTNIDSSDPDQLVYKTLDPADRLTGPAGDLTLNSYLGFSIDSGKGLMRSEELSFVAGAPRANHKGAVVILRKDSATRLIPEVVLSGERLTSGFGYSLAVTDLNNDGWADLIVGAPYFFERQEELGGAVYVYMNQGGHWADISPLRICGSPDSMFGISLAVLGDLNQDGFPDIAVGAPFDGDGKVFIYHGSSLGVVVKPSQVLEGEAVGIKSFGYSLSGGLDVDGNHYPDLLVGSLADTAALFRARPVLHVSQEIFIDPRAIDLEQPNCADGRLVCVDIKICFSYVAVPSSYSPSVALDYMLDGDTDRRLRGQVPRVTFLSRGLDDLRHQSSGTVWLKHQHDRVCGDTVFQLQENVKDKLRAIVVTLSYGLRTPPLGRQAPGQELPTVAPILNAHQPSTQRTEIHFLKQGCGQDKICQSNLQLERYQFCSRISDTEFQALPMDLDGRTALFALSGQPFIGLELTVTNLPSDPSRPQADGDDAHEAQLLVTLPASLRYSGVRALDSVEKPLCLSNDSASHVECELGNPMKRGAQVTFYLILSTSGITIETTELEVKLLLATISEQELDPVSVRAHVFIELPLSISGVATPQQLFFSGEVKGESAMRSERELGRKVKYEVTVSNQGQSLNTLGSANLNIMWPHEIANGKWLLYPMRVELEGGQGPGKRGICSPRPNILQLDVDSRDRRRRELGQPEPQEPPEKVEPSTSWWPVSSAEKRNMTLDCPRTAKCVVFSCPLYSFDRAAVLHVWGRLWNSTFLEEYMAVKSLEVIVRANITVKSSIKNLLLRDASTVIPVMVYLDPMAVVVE
T2 sequence (P09055 21-728 limits assumed, chain 2 of 2): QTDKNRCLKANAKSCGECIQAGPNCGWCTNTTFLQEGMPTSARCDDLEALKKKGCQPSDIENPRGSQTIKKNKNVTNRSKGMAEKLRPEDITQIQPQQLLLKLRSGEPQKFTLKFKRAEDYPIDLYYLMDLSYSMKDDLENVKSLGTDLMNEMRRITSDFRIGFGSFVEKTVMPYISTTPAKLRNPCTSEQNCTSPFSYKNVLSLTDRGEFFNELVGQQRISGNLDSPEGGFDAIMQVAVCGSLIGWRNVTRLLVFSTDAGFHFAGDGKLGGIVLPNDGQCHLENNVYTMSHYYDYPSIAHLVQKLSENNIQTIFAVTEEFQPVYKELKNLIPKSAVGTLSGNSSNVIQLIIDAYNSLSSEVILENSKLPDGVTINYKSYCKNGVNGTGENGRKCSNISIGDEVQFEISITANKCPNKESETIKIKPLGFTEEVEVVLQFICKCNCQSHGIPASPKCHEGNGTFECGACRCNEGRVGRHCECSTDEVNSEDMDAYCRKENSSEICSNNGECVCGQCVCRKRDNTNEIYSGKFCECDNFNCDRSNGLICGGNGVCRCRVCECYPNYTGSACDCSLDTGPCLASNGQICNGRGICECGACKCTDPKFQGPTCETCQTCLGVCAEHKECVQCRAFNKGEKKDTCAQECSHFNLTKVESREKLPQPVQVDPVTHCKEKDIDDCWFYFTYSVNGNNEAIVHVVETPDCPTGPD
Kind of experiment: comparison of the KD values of Table 8.

Experiment [4] deals with T1, Human Integrin α7β1. Kind of experiment: kinetics with RU read-out, integrin captured at 0.25 µg/mL, antibody as analyte, 1:1 binding model.
The target in experiment [5] is T2, Mouse Integrin α7β1. Described as above.
Experiment [6] has as its target T3, human integrin alpha-7 (ITGA7) co-transfected with integrin beta-1 precursor (ITGB1) on HEK-293T cells, wild … (human, UniProt P05556 21-798, limits assumed).
T3 construct: whole, on cells; also called target protein; wild-type (WT) target protein
Kind of experiment: high-throughput flow cytometry on HEK-293T cells with ITGA7 + ITGB1 against vector alone, 0.5 µg/ml. The source says:
(§1) Conditions for binding and screening of monoclonal antibodies and Fabs using high-throughput flow cytometry were optimized using wild-type target protein cloned into a proprietary vector and expressed in HEK-293T cells. The target protein is human integrin alpha-7 (ITGA7; UniProt ID Q13683; SEQ ID NO: 24). The binding of the VL3VHK20TFT monoclonal antibody and the VL3VHK20TFT Fab to HEK-293T cells co-transfected (1:1) with integrin beta-1 precursor (ITGB1) and integrin subunit alpha 7 (ITGA7) or with vector alone (negative control) was evaluated by high-throughput flow cytometry. The antibodies 3C12, 6A11, A1-1a M20, and A1-1a M24 were used as positive controls for ITGA7 binding.
(§2) Each point in FIG. 15 and FIG. 16 represents the mean of four replicates. The optimal screening concentration for each antibody or Fab (outlined in a box) was determined based on the raw signal values and signal-to-background calculations.

The target of experiment [7] is T3, human integrin alpha-7 (ITGA7) …. In words: high-throughput flow cytometry on HEK-293T cells with ITGA7 + ITGB1 against vector alone, 2.0 µg/ml.
Excerpt: as §1, §2

In experiment [8] the target is T4, ITGA7 mutant R958A on HEK-293T cells (human, UniProt P05556 21-798).
T4 construct: whole, on cells; Clone of the alanine-scan library of ITGA7
Kind of experiment: high-throughput flow cytometry on HEK-293T cells with the ITGA7 alanine mutant, high stringency, normalized to wild type. How it is done: (§3) In order to map the epitope of VL3VHK20TFT, an alanine-scan library of the target protein (ITGA7; SEQ ID NO: 24) was constructed. Shotgun mutagenesis epitope mapping was performed using the general procedure described in Davidson and Doranz, 2014, Immunology 143, 13-20. Briefly, a mutation library of the target protein was created by high-throughput, site-directed mutagenesis. Each residue was individually mutated to alanine, with alanine codons mutated to serine. The mutant library was arrayed in 384-well microplates and transiently transfected into HEK-293T cells. Following transfection, cells were incubated with the indicated antibodies (VL3VHK20TFT Fab or 6A11 monoclonal antibody (mAh)) at concentrations predetermined using an independent immunofluorescence titration curve on wild type protein. The antibodies were detected using an Alexa Fluor 488-conjugated secondary antibody, and mean cellular fluorescence was determined using Intellicyt® iQue flow cytometry platform. […] This counterscreen strategy facilitates the exclusion of mutants that are locally misfolded or that have an expression defect.
(§4) The binding of VL3VHK20TFT Fab and 6A11 mAh to each mutant clone in an alanine scanning library of ITGA7 mutants was determined, in duplicate, by high-throughput flow cytometry. For each point, background fluorescence was subtracted from the raw data, which were then normalized to antibody (Ab) reactivity with wild-type (WT) target protein. For each mutant clone, the mean binding value was plotted as a function of expression (represented by control reactivity). To identify preliminary primary critical clones (red circles), a threshold (dashed lines) of >70% WT binding to control Ab and <20% WT binding to test Abs was applied.

The target in experiment [9] is T5, ITGA7 mutant M976A on HEK-293T cells (human, UniProt P05556 21-798).
T5 construct: whole, on cells; Clone of the alanine-scan library of ITGA7
Described as above. How it is done:
as §3, §4

Experiment [10] concerns the target T6, ITGA7 mutant W978A on HEK-293T cells (human, UniProt P05556 21-798).
T6 construct: whole, on cells; Clone of the alanine-scan library of ITGA7
The description is as above. As to the method:
as §3, §4

For experiment [11], the target named is T7, ITGA7 mutant W979A on HEK-293T cells (human, UniProt P05556 21-798).
T7 construct: whole, on cells; Clone of the alanine-scan library of ITGA7
The description is as above. How it is done:
as §3, §4

The target of another experiment is human α6β1 integrin (human, UniProt P23229 24-1011; P05556 21-728, limits assumed). Kind of experiment: dose titration on integrins (FIG. 11B).
A further experiment concerns the target human α5β1 integrin (human, UniProt P08648 42-995; P05556 21-728, limits assumed). In words: dose titration on integrins (FIG. 11B).

T1 sequence (Q13683 other isoform, or with tags, fused parts or gaps limits assumed, chain 1 of 2): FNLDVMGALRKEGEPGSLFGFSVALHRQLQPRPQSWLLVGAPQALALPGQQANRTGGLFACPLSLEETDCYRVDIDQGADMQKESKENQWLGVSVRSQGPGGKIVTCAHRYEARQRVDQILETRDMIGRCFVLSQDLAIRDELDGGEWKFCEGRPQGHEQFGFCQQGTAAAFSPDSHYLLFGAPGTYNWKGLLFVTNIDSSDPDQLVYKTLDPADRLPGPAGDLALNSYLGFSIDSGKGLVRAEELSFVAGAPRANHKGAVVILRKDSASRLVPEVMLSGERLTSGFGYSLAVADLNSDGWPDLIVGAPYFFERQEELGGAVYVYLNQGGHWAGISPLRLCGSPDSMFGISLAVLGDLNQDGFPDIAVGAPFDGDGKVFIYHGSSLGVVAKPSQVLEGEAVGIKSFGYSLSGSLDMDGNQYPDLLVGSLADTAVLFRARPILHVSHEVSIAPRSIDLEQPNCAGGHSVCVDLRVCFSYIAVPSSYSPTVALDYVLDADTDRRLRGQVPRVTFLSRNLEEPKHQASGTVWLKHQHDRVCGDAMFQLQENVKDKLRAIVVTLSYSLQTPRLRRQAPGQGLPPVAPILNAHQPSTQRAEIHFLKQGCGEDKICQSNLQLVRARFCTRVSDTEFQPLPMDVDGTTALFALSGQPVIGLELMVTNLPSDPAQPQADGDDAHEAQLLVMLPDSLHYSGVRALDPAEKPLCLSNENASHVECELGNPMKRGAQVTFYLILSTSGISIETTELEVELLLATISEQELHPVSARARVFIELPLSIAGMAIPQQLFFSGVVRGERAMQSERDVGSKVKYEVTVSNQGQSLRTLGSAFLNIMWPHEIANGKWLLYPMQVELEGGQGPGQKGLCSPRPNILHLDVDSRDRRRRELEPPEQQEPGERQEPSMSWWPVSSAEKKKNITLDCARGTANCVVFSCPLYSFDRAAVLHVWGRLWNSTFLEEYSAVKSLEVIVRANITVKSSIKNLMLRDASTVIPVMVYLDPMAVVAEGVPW
T1 sequence (P05556 21-728 limits assumed, chain 2 of 2): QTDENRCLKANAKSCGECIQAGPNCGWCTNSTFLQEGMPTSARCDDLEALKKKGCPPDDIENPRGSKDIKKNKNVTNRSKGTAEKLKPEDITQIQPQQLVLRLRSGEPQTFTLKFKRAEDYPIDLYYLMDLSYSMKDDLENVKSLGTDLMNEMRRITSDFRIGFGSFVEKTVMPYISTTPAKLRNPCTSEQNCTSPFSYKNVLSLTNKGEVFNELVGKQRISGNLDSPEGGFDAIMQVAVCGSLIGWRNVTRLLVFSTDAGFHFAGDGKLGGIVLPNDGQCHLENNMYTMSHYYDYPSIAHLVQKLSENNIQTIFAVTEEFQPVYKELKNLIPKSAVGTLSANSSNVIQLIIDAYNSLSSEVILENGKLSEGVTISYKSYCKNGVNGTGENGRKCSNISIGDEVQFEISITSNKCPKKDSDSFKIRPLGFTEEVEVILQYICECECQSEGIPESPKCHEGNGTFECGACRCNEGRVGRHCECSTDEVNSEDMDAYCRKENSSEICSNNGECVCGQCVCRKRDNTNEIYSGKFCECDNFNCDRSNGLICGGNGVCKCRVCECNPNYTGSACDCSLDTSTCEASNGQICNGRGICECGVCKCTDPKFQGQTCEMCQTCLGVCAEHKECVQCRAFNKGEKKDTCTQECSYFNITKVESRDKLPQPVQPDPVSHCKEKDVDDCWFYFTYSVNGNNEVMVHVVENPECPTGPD
human α5β1 integrin, sequence (P08648 42-995 limits assumed, chain 1 of 2): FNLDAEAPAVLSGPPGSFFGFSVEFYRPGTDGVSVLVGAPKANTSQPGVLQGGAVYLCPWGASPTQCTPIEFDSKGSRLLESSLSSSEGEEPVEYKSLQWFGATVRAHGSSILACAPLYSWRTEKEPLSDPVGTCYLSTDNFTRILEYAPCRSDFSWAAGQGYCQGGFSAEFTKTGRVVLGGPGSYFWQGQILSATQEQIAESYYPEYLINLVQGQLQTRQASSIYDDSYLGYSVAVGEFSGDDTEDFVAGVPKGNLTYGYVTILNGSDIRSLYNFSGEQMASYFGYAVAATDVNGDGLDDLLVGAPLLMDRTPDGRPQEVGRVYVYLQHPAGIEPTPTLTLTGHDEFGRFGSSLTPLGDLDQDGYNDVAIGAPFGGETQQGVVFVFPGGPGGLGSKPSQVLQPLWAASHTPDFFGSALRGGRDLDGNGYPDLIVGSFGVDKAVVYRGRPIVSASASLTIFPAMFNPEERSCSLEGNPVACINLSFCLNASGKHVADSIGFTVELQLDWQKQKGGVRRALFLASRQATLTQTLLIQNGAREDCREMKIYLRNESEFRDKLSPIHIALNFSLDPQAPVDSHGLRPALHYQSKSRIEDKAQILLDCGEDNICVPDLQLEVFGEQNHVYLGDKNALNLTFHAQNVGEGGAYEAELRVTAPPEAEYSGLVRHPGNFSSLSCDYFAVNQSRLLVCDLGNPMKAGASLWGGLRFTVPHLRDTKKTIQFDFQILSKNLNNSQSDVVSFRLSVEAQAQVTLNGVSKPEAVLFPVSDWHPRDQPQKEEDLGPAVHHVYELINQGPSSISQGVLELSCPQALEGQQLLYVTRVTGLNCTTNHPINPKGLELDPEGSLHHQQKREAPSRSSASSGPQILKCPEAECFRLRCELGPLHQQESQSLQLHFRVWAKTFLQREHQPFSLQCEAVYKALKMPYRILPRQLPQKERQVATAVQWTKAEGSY
human α5β1 integrin, sequence (P05556 21-728 limits assumed, chain 2 of 2): as the sequence (P05556 21-728 limits assumed, chain 2 of 2) above

B1: VL3VHK20TFT monoclonal antibody (antibody, human IgG4 S228P, kappa, V domains shown)
VH: QVQLVQSGAEVKKPGASVKVSCKASGYTFTKYWINWVRQAPGQGLEWMGIIYPGSSTSNYNEKFKTRVTMTVDTSTSTAYMELSSLRSEDTAVYYCVKNDNWGQGTLVTVSS
VL: DIQMTQSPSSLSASVGDRVTITCRASESVDNYGISFMNWFQQKPGKAPKLLIYAASDLGSGVPSRFSGSGSGTDFTLTISSLQPEDFATYYCHQSKEVPYTFGQGTKLEIKR
notes: Humanized M36/M38; also called hIgG4-36; hIgG-36
With B1, the “cell index (integrin α7β1 mediated cell adhesion) of DMD myoblast cells on laminin 211” value in experiment [1] was ~5 fold. Also, the “fold lower KD than the chimera antibody VLVH” value with Human Integrin α7β1 [2] was ~3.33 fold. Moreover, the “fold lower KD than the chimera antibody VLVH” value in the experiment with Mouse Integrin α7β1 [3] was ~11.1 fold. In the experiment with Human Integrin α7β1 [4], the Kd was 0.593 nM, the koff amounted to 0.000153 s⁻¹ and the kon is 258000 M⁻¹ s⁻¹. Moreover, in the experiment with Mouse Integrin α7β1 [5], the Kd was 1.96 nM, the koff came to 0.000469 s⁻¹ and the kon is 239000 M⁻¹ s⁻¹. In addition, in [6], the “Signal:Background” value is 18 ratio signal:background.

B2: VL3VHK20TFT Fab (Fab, V domains shown)
VH: B1 VH
VL: DIQMTQSPSSLSASVGDRVTITCRASESVDNYGISFMNWFQQKPGKAPKLLIYAASDLGSGVPSRFSGSGSGTDFTLTISSLQPEDFATYYCHQSKEVPYTFGQGTKLEIK
notes: Fab of VL3VHK20TFT; also called VL3VHK20TFT Fab HS; Test Fab
With B2, the “Signal:Background” value in [7] was 12 ratio signal:background. Further, the “Binding Reactivity (% WT)” value in experiment [8] was 27.8 % WT; in experiment [9] it was 29.5 % WT; in experiment [10], -0.3 % WT; in experiment [11], -0.7 % WT.

B3: mouse α7β1 antibody VLVH (Chimera with human IgG4 Fc) (antibody, V domains shown)
VH: QVQLQQPGAELVKPGASVKLSCKASGYNFTKYWINWVKQRPGQGLEWIGIIYPGSSTSNYNEKFKTKATLTVEISSTTAYMQLSSLTSDDSAVYYCVRGDDWGQGTTLTVSS
VL: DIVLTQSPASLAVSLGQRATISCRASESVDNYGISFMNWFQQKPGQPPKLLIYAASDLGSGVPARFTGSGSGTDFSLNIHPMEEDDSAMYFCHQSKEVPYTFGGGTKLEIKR
notes: also called hIgG4-23; murine antibody (VLVH)
Turning to B3, in the experiment with Human Integrin α7β1 [4], the Kd came out at 1.96 nM, the koff was found to be 0.000652 s⁻¹ and the kon was determined as 333000 M⁻¹ s⁻¹. Moreover, in the experiment with Mouse Integrin α7β1 [5], the Kd worked out at 21.8 nM, the koff was 0.00213 s⁻¹ and the kon came out at 97600 M⁻¹ s⁻¹.

B4: antibody M38 (antibody, V domains shown)
VH: B3 VH
VL: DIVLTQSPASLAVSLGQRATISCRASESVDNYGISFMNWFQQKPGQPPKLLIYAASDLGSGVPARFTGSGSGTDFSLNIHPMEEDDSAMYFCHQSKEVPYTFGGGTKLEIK
notes: Mouse hybridoma monoclonal antibody
In the case of B4, the binding result with human α6β1 integrin and with human α5β1 integrin was “no binding” in each case.

B5: antibody M36 (antibody, V domains shown)
VH: B3 VH
VL: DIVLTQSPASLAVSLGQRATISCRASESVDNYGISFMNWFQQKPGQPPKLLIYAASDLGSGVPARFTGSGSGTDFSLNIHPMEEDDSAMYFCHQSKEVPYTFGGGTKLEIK
notes: Mouse hybridoma monoclonal antibody; also called M36 agonist antibody
On to B5, for which the binding result with human α6β1 integrin and with human α5β1 integrin was “no binding” in each case.
